Our source for the activity of insulin receptor tyrosine kinase values is US20130310313A1.

The experiment concerns the target insulin receptor (insulin receptor tyrosine kinase assay). Description: cell-based or functional assay.
RYKYQCWYI [IRBP-9D (SEQ ID NO:193)] yielded an activity of insulin receptor tyrosine kinase of 66 U/ml. In the case of RYKYQWFYI [IRBP-9A (SEQ ID NO:190)] it was 40.3 U/ml; in that of RYKYQCFYI [IRBP-9B (SEQ ID NO:191)], 79.8 U/ml. The figure for RYKYQWWYI [IRBP-9C (SEQ ID NO:192)] is 44.2 U/ml.
